Results reported in PMC5730154.

Target: T1, PamR (YdcH) (Bacillus subtilis 168) (UniProt P96625)
T1 sequence: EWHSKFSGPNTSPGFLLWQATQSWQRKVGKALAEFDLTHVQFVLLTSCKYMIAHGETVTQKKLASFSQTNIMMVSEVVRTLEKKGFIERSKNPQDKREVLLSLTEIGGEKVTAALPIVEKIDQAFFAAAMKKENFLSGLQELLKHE
Experiment: EMSA
Settings: 20 mM NaPO4 pH 7, 50 mM NaCl, 5 mM MgCl2, 10% glycerol, 0.1 ug/ul salmon sperm DNA, 10 min at room temperature; 4% native acrylamide gel

AATGTTCCTTCCGTTCCATTTTGAAATTGTCCTTTCAAAGAATCTGATGCAATACCCGTCTCCCATTGATCCATTGTTTCTGTTTCCTGATAACAGTTCCAGGTTTTCCCACATCCACATCAGCTATCGCTGTGTATTCATAATTCCACATCCCATAAGCTCCCAGAATGATAAGTTCACTTATTAATTATAATAAGCGCACTTATTAATAGTCAACCGCAAAAAAAAGAAGCCGGATGTCCAGCTTCTTTTTCTGGTTTTTTAGGACAGCTGTCCGAGAATATAGGTCAGGT (double strand) [PydcF wt 293 bp]
binding: binds

ACCTGACCTATATTCTCGGACAGCTGTCCTAAAAAACCAGAAAAAGAAGCTGGACATCCGGCTTCTTTTTTTTGCGGTTGACTATATTATTCTGCGCTTATTATAATTAATAAGTGAACTTATCATTCTGGGAGCTTATGGGATGTGGAATTATGAATACACAGCGATAGCTGATGTGGATGTGGGAAAACCTGGAACTGTTATCAGGAAACAGAAACAATGGATCAATGGGAGACGGGTATTGCATCAGATTCTTTGAAAGGACAATTTCAAAATGGAACGGAAGGAACATT (double strand) [PydcF IR1* mutant]
binding: binds more weakly
